Results from patent publication US20210275657A1 (published 2021).

Tests used:
[1] = target: T1, GATA3 neoORF (frameshift mutation of GATA3), common region peptide on HLA-A*02:01 (human); experiment: Summary statement of the same IL-2 peptide titration with TCR-transduced Jurkat cells and peptide loaded HEK 293T cells; full-length, on cells
[2] = target: T1, GATA3 neoORF (frameshift mutation of …); experiment: IL-2 release (Meso Scale Discovery) by TCR-transduced Jurkat cells, 10:1 with HEK 293T cells (endogenous HLA-A02:01) loaded overnight with titrated GATA3 peptide; FIG. 44; full-length, on cells

B1: GATA3 specific TCR clonotype 1 (TCR, V domains shown)
Valpha: SQKIEQNSEALNIQEGKTATLTCNYTNYSPAYLQWYRQDPGRGPVFLLLIRENEKEKRKERLKVTFDTTLKQSLFHITASQPADSATYLCALDIYGNNRLAFGKGNQVVVIP
Vbeta: DVKVTQSSRYLVKRTGEKVFLECVQDMDHENMFWYRQDPGLGLRLIYFSYDVKMKEKGDIPEGYSVSREKKERFSLILESASTNQTSMYLCASSLDFVLAGSYSYNEQFFGPGTRLTVL
[1]
  EC50 of peptide: < 40 nM
[2]
  EC50 of peptide: 37.9 nM
